From patent US20070020327A1 come the findings set out here.

Assay [1] addresses HLA-A*2401 (human). Put plainly: competition with a 125I-labelled standard peptide for purified HLA class I, bound and free peptide separated by gel filtration.
The target of assay [2] is HLA-A*2401 (human). The assay can be described thus: competition with 125I-labelled standard peptide for purified HLA, gel filtration.
In assay [3] the target is HLA-A*2401 (human). The assay can be described thus: inhibition of binding of a 125I-labelled standard peptide to purified HLA, gel filtration.
Assay [4] addresses HLA-A*2401 (human). The assay can be described thus: competition with a 125I-labelled standard peptide for purified HLA, gel filtration.
For assay [5], the target named is HLA-A*2401 molecule, purified HLA class I (human). The assay can be described thus: competition with 125I-labelled probe peptide for purified HLA, gel filtration; relative binding.
Assay [6] deals with HLA-A*2401 (human). Put plainly: competition with 125I-labeled probe peptide for purified HLA, gel filtration. The settings on record: scale: ratio.
For assay [7], the target named is HLA-A*2401 (human). Put plainly: competitive inhibition of 125I-labelled standard peptide binding to purified HLA, gel filtration.
For assay [8], the target named is HLA-A*2401 (human). Put plainly: competition with a 125I-labelled standard peptide for purified HLA, gel filtration; value relative to the standard peptide.
In assay [9] the target is HLA-A*2401 (human). The assay can be described thus: competition with 125I-labelled standard peptide for purified HLA, gel filtration; relative binding.

For “Kallikrein (hK2) peptide …, position 156, 10 amino acids”, the binding affinity ratio (IC50 of the standard peptide / IC50 of the test peptide) with HLA-A*2401 (human) [1] is 0.0001.

As for “Kallikrein (hK2) peptide …, position 248, 10 amino acids”, the binding affinity ratio (IC50 of the standard peptide / IC50 of the test peptide) with HLA-A*2401 (human) [1] was found to be 0.055.

For the substance “PAP peptide … (position 17, 9 amino acids)”, the binding affinity ratio (IC50 of the standard peptide / IC50 of the test peptide) with HLA-A*2401 (human) [2] amounted to 0.0016.

“PAP peptide … (position 17, 10 amino acids)”: the binding affinity ratio (IC50 of the standard peptide / IC50 of the test peptide) with HLA-A*2401 (human) [2] was 0.0007.

As to “PAP peptide … (position 22, 10 amino acids)”, the binding affinity ratio (IC50 of the standard peptide / IC50 of the test peptide) with HLA-A*2401 (human) [3] worked out at 0.0045.

Turning to “PAP peptide … (position 23, 9 amino acids)”, the binding affinity ratio (IC50 of the standard peptide / IC50 of the test peptide) with HLA-A*2401 (human) [2] turned out to be 0.0017.

Turning to “PAP peptide … (position 41, 10 amino acids)”, the binding affinity ratio (IC50 of the standard peptide / IC50 of the test peptide) in the assay with HLA-A*2401 (human) [4] was 0.0005.

Take “PAP peptide … (position 62, 9 amino acids)”: the binding affinity ratio (IC50 of the standard peptide / IC50 of the test peptide) in [5] came out at 0.0013.

For “PAP peptide … (position 83, 10 amino acids)”, in the assay with HLA-A*2401 (human) [6], the binding affinity ratio (relative to standard peptide) came out at 0.0067.

Consider “PAP peptide … (position 96, 9 amino acids)”, for which the binding affinity ratio (IC50 of the standard peptide / IC50 of the test peptide) in [5] is 0.26.

With “PAP peptide … (position 123, 9 amino acids)”, in the assay with HLA-A*2401 (human) [3], the binding affinity ratio (IC50 of the standard peptide / IC50 of the test peptide) was determined as 0.0033.

Take “PAP peptide … (position 123, 10 amino acids)”: the binding affinity ratio (IC50 of the standard peptide / IC50 of the test peptide) in the assay with HLA-A*2401 (human) [3] came out at 0.014.

For “PAP peptide … (position 183, 9 amino acids)”, the binding affinity ratio (IC50 of standard peptide / IC50 of test peptide) with HLA-A*2401 (human) [7] was 0.11.

For the substance “PAP peptide … (position 205, 9 amino acids)”, in the assay with HLA-A*2401 (human) [3], the binding affinity ratio (IC50 of the standard peptide / IC50 of the test peptide) stood at 0.0024.

For “PAP peptide … (position 302, 9 amino acids)”, in the assay with HLA-A*2401 (human) [8], the binding affinity ratio (IC50 of the standard peptide / IC50 of the test peptide) was 0.032.

Turning to “PAP peptide … (position 309, 10 amino acids)”, in the assay with HLA-A*2401 (human) [7], the binding affinity ratio (IC50 of standard peptide / IC50 of test peptide) worked out at 0.024.

For the substance “PSA peptide … (position 2, 9 amino acids)”, the binding affinity ratio (IC50 of the standard peptide / IC50 of the test peptide) with HLA-A*2401 (human) [4] is 2.1.

As for “PSA peptide … (position 2, 10 amino acids)”, the binding affinity ratio (IC50 of the standard peptide / IC50 of the test peptide) with HLA-A*2401 (human) [4] came out at 0.0062.

Turning to “PSA peptide … (position 9, 9 amino acids)”, the binding affinity ratio (IC50 of the standard peptide / IC50 of the test peptide) with HLA-A*2401 (human) [4] worked out at 0.11.

“PSA peptide … (position 9, 10 amino acids)”: in the assay with HLA-A*2401 (human) [4], the binding affinity ratio (IC50 of the standard peptide / IC50 of the test peptide) is 0.36.

In the case of “PSA peptide … (position 98, 9 amino acids)”, the binding affinity ratio (relative to standard peptide) with HLA-A*2401 (human) [6] came out at 0.0001.

Turning to “PSA peptide … (position 190, 9 amino acids)”, the binding affinity ratio (IC50 of the standard peptide / IC50 of the test peptide) in the assay with HLA-A*2401 (human) [3] was 0.031.

In the case of “PSA peptide … (position 224, 9 amino acids)”, the binding affinity ratio (IC50 of the standard peptide / IC50 of the test peptide) in assay [5] worked out at 0.0001.

Regarding “PSA peptide …, position 152, 10 amino acids”, the binding affinity ratio (IC50 of the standard peptide / IC50 of the test peptide) with HLA-A*2401 (human) [1] was 0.0001.

Take “PSA peptide …, position 244, 10 amino acids”: the binding affinity ratio (IC50 of the standard peptide / IC50 of the test peptide) with HLA-A*2401 (human) [1] was 0.055.

Regarding “PSM peptide … (position 31, 9 amino acids)”, the binding affinity ratio (IC50 of the standard peptide / IC50 of the test peptide) with HLA-A*2401 (human) [2] stood at 0.019.

On to “PSM peptide … (position 32, 10 amino acids)”, for which the binding affinity ratio (IC50 of the standard peptide / IC50 of the test peptide) with HLA-A*2401 (human) [2] stood at 0.0026.

Consider “PSM peptide … (position 178, 9 amino acids)”, for which the binding affinity ratio (IC50 of standard peptide / IC50 of test peptide) with HLA-A*2401 (human) [7] amounted to 0.77.

In the case of “PSM peptide … (position 565, 10 amino acids)”, the binding affinity ratio (IC50 of the standard peptide / IC50 of the test peptide) in the assay with HLA-A*2401 (human) [2] was found to be 1.1.

As to “PSM peptide … (position 582, 10 amino acids)”, the binding affinity ratio (IC50 of the standard peptide / IC50 of the test peptide) with HLA-A*2401 (human) [2] came to 0.0002.

For “PSM peptide … (position 606, 9 amino acids)”, in the assay with HLA-A*2401 (human) [3], the binding affinity ratio (IC50 of the standard peptide / IC50 of the test peptide) came out at 12.

In the case of “PSM peptide … (position 621, 9 amino acids)”, the binding affinity ratio (relative to standard peptide) in the assay with HLA-A*2401 (human) [6] came out at 0.001.

In the case of “PSM peptide … (position 624, 10 amino acids)”, in the assay with HLA-A*2401 (human) [4], the binding affinity ratio (IC50 of the standard peptide / IC50 of the test peptide) amounted to 3.2.

Consider “PSM peptide … (position 638, 9 amino acids)”, for which the binding affinity ratio (IC50 of standard peptide / IC50 of test peptide) with HLA-A*2401 (human) [7] amounted to 0.0001.

In the case of “PSM peptide …, position 409, 10 amino acids”, in the assay with HLA-A*2401 (human) [1], the binding affinity ratio (IC50 of the standard peptide / IC50 of the test peptide) was determined as 0.054.

For “… (PAP, position 70, 10 amino acids) (peptide)”, in the assay with HLA-A*2401 (human) [2], the binding affinity ratio (IC50 of the standard peptide / IC50 of the test peptide) turned out to be 0.0022.

As for … (PAP, position 96) (peptide), the binding affinity ratio (IC50 of standard peptide / IC50 of test peptide) with HLA-A*2401 (human) [9] turned out to be 0.26.

Take “… (PAP, position 213, 9 amino acids) (peptide)”: the binding affinity ratio (IC50 of the standard peptide / IC50 of the test peptide) with HLA-A*2401 (human) [2] was determined as 0.44.

“… (PAP, position 318, 9 amino acids) (peptide)”: the binding affinity ratio (IC50 of the standard peptide / IC50 of the test peptide) with HLA-A*2401 (human) [2] stood at 2.5.

Consider … (PSA, position 54) (peptide), for which the binding affinity ratio (IC50 of standard peptide / IC50 of test peptide) with HLA-A*2401 (human) [9] stood at 0.0007.

Regarding “… (PSA, position 96, 11 amino acids) (peptide)”, in the assay with HLA-A*2401 (human) [2], the binding affinity ratio (IC50 of the standard peptide / IC50 of the test peptide) is 0.12.

In the case of … (PSA, position 224) (peptide), in the assay with HLA-A*2401 (human) [9], the binding affinity ratio (IC50 of standard peptide / IC50 of test peptide) was 0.0001.

With “… (PSM, position 74, 10 amino acids) (peptide)”, the binding affinity ratio (IC50 of the standard peptide / IC50 of the test peptide) with HLA-A*2401 (human) [2] came out at 0.23.

For the substance … (PSM, position 178) (peptide), the binding affinity ratio (IC50 of standard peptide / IC50 of test peptide) with HLA-A*2401 (human) [9] was determined as 0.77.

Turning to “… (PSM, position 227, 9 amino acids) (peptide)”, in the assay with HLA-A*2401 (human) [2], the binding affinity ratio (IC50 of the standard peptide / IC50 of the test peptide) came out at 0.44.

In the case of … (PSM, position 624) (peptide), in the assay with HLA-A*2401 (human) [9], the binding affinity ratio (IC50 of standard peptide / IC50 of test peptide) stood at 3.2.

As for “… (PSM, position 668, 9 amino acids) (peptide)”, in the assay with HLA-A*2401 (human) [2], the binding affinity ratio (IC50 of the standard peptide / IC50 of the test peptide) came out at 0.0075.
